Laboratory results taken from doi:10.1101/2020.04.15.043133.
Where two headings read alike, the source gives them in different places.

Legend:
[1] = target: CR3 headpiece fragment (integrin αMβ2 headpiece) (human) (UniProt P11215); assay: SEC
[2] = target: iC3b biotinylated on the thioester cysteine (UniProt P01024); assay: SPR
C3d (human) = C3d (human) (UniProt P01024); assay: SPR
[3] = target: iC3b biotinylated on the thioester cysteine (UniProt P01024); assay: SPR; remark: listed apart in the source

- stoichiometry N [1]: 2
- Kd [2]: 6.2 nM
- fold lower koff than in the Mg2+ buffer [2]: 30 fold
- Kd (C3d (human)): 515 nM
- Kd [3]: 30 nM
Substance: CR3 headpiece fragment (integrin αMβ2 headpiece) (from UniProt P11215 17-773; P05107 23-504) (receptor)
